This note sets out measurements from patent US20240150443A1, “[…] MEASLES VIRUS” (The Trustees of Columbia University in the City of New York, priority 2021, published 2024).

The target in assay [1] is T1, MeV IC323 F (pre-fusion, on transfected HEK293T cells) (Measles virus strain IC323, UniProt Q786F3 24-550).
T1 construct: whole, on cells; also called pCAGGS-MeV IC323 F; MeV F
T1 sequence: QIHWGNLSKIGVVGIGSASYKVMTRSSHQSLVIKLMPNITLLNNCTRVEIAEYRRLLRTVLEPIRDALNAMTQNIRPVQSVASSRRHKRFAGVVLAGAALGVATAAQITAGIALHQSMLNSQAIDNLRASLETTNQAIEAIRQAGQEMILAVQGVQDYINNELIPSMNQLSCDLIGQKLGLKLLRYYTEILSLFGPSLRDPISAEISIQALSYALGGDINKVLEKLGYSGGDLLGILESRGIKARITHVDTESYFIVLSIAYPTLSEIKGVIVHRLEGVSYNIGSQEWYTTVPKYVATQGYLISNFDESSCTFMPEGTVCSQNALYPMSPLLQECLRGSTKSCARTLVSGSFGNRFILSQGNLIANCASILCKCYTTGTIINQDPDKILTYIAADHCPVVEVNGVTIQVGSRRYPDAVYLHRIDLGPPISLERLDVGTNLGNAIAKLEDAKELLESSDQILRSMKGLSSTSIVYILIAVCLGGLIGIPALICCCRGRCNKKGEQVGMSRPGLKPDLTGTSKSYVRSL
Kind of assay: immunofluorescence of transfected HEK293T cells, Alexa 488 anti 6-histidine antibody.

In assay [2] the test system is MeV IC323-EGFP. Kind of assay: Viral spread / plaque enlargement assay in Vero-SLAM cells. It counts as cell-based, measles virus (MeV). On the procedure: In an effort to identify a more broadly reactive mAb, the neutralizing activity of two other previously identified mAbs, mAb 77.4 and mAb Y503, was assessed in the experiments shown in FIG. 1 I-K. Vero cells expressing the measles receptor SLAM (Vero-SLAM) were infected with MeV IC323-EGFP virus (the expression of fluorescent protein permits tracking of the spread of infection). Six hours post-infection, the cells were treated with serial dilutions of mAbs 77.4 or Y503.
(H-K) VeroSLAM cells were infected with MeV IC323-EGFP at a multiplicity of infection (MOI)=0.001. […] (K) MeV infection in Vero-SLAM cells either untreated (NT) or treated at the indicated dilution of supernatant fluids from hybridomas producing anti F-mAb 77.4 or mAb Y503 were quantified using fluorescent spectroscopy. Data are expressed as relative fluorescence units (RFUs).
The scFv was expressed in eukaryotic cells and purified by affinity purification using a 6×-hisitidine tag (see Materials and Methods). Vero-SLAM cells were infected with MeV IC323-EGFP virus and six hours post-infection, the cells were treated with serial dilutions of the scFv (62.5 μg/ml and 1.95 μg/ml are shown in 3C and CD) and immunofluorescent syncytium formation was measured to quantify viral spread 48 hours post-infection.
Plaque enlargement assay. […] Quantification was determined using fluorescent spectroscopy.

The target of assay [3] is MeV G954 H/F fusion complex (Measles virus, UniProt Q786F3, H419R/Q139R/R70K). The conditions noted are these: SLAM-bearing HEK293T target cells, 6 h. How it is done:
(§1) To assess the specificity of the scFV derived from mAb 77.4 for MeV F, cells expressing either MeV IC323 F or the human parainfluenza virus 3 fusion protein (HPIV3 F) were incubated with the scFv and subjected to immunofluorescence using a fluorescently-labeled Alexa 488 anti 6-histidine antibody (FIG. 3E-F). […] Finally, we assessed whether the scFv blocked cell-cell fusion mediated by either MeV IC323 or G954 H/F fusion complexes (FIG. 3G). For this experiment we used a beta-galactosidase (β-Gal) complementation assay^18 that measures the fusion of cells that express viral envelope glycoproteins (MeV IC323 or G954 H/F) with cells that express the MeV receptor SLAM (FIG. 3G). HEK293T (“target cells”) were transiently transfected with SLAM and the omega reporter subunit of beta-galactosidase, and incubated for the indicated time period in the presence of different concentrations of inhibitors with “effector cells” co-expressing MeV G954 or IC323 H and F together with the alpha reporter subunit of beta-galactosidase. Fusion between the target and effector cells leads to reconstitution of beta-galactosidase activity, which we quantified using the luminescence-based Galacto-Star™ β-Galactosidase Reporter Gene kit (ThermoFisher, US).
(§2) (A) Sequence of the single-chain variable fragment antibody derived from anti-MeV F mAb 77.4. […] Images were obtained using epifluorescent microscopy 48 h post-infection (scale bar=200 μm). (C) HEK293T cells were transfected with either pCAGGS-HPIV3 F or MeV IC323 F and stained using scFv 24 h post-transfection (scale bar=200 μm). (D) Fusion of MeV G954 or IC323 H/F co-expressing cells with SLAM-bearing cells in the presence of scFv at indicated concentrations was quantified at 6 h using a β-galactosidase complementation assay.

In assay [4] the target is MeV IC323 H/F fusion complex (Measles virus, UniProt Q786F3). The conditions noted are these: SLAM-bearing HEK293T target cells, 6 h. How it is done: as §1, §2
The target in assay [5] is human parainfluenza virus 3 fusion protein (HPIV3 F) (Human parainfluenza 3 virus, UniProt P06828). As to conditions: HEK293T, 24 h post-transfection. On the procedure:
as §1, §2

The subject of assay [6] is MeV WTFb. Kind of assay: In vivo prophylaxis against MeV infection in cotton rats (scFv, intranasal). Set-up: species or system cotton rats (Sigmodon hispidus). On the procedure: To assess anti-MeV prophylaxis by the scFv in vivo, we used cotton rats (CR) as an infection model. The scFv antibody construct was administrated via intranasal delivery 24 and 12 h before infection. Four days after infection, the animals were euthanized, and the viral titers in the animals' lungs were quantified.
Cotton rats were infected intranasally with 10^5 TCID50/ml of MeV WTFb. Animals received either the indicated amount of mAb 77.4-derived scFv construct (n=4) or vehicle (n=8) 24 h and 12 h prior to infection. Animals were euthanized 5 days after infection. Lungs were collected and homogenized for TCID50 titration. Results are presented as TCID50/g of lung. Statistical analyses were performed using the Mann-Whitney U-test.
In vivo experiments: Cotton rats. Inbred cotton rats (Sigmodon hispidus) were purchased from Envigo, Inc., Indianapolis. Both male and female cotton rats aged 5 to 7 weeks were used. For infection, 10^5 TCID50 of MeV (strain WTFb) was inoculated intranasally to isofluorane-anesthetised cotton rats in a volume of 100 μl. Treatment was performed in the same way at the indicated time points. Four days after infection, the animals were euthanized using CO2 inhalation, and their lungs were collected and weighed. Lung tissue was minced with scissors and homogenized with a glass dounce homogenizer. Vero-SLAM cells were inoculated with serial 10-fold dilutions of supernatant fluids to assess the presence of infectious virus in 48-well plates using cytopathic effect (CPE) as an endpoint. Plates were scored for CPE microscopically after 7 days, and the TCID50 was calculated as described previously^43.

B1: single-chain variable fragment (scFv) derived from anti-MeV F mAb 77.4 (scFv)
scFv: MDVQLQESGPGLVKPSQSLSLTCTVSGYSITSDYAWNWIRQFPGNKLEWMGYISYTLTTGYNPSLKSRISITRDSSKNQFFLQLNSVTTEDTATYYCARSGWLLPYWYFDVWGAGTTVTVSSGGGGSGGGSGGGGSDVQITQSPSYLAASPGETITINCRASKSISKYLAWYQEKPGKTNELLIYSGSTLQSGIPSRFRGSGSGTDFTLTISSLEPEDFAMYYCQQHNEYTLTFGGGTKLELKRHHHHHH
notes: also called mAb 77.4-derived scFv
Take B1: in assay [1], the binding result is “binds”.

B2: scFv: single-chain fragment made by fusing VH and VL of mAb 77.4 via G4S linker, 6x-histidine tag; SEQ ID NO:3 (protein)
scFv: MDVQLQESGPGLVKPSQSLSLTCTVSGYSITSDYAWNWIRQFPGNKLEWMGYISYTLTTGYNPSLKSRISITRDSSKNQFFLQLNSVTTEDTATYYCARSGWLLPYWYFDVWGAGTTVTVSSGGGGSGGGSGGGGSDVQITQSPSYLAASPGETITINCRASKSISKYLAWYQEKPGKTNELLIYSGSTLQSGIPSRFRGSGSGTDFTLTISSLEPEDFAMYYCQQHNEYTLTFGGGTKLELKRHHHHHH
modifications: 6x His tag; single-chain variable fragment antibody
In the case of B2, in assay [2] (Vero-SLAM, serial dilutions of scFv, 48 hours post-infection), the “inhibition of viral infection (syncytium formation)” value is given as “clearly inhibited viral infection”. In addition, in assay [2] (general statement, assay not specified), the “in vitro potency compared with the full antibody (mAb 77.4)” value is “less than that of the full antibody”. Also, the “inhibition of cell fusion mediated by G954 H/F” value in assay [3] is recorded as “inhibited cell fusion”. In addition, the “inhibition of cell fusion mediated by IC323 H/F” value in assay [4] is given as “inhibited cell fusion”. In addition, in assay [5], the “recognition of cells expressing HPIV3 F by scFv” value was “not those expressing HPIV3 F”. Also, the lung infection result was “completely inhibited lung infection” in assay [6] (0.5 mg/ml intranasal 24 and 12 h before infection); “completely inhibited lung infection” in assay [6] (1 mg/ml intranasal 24 and 12 h before infection). The “viral titers in the lungs compared with untreated controls” value in assay [6] (intranasal 24 and 12 h before infection, doses 0.25, 0.5 and 1 mg/ml) is “significantly reduced viral titers in the lungs”.
